Where two headings read alike, the source gives them in different places.
Key:
[1] = target: Porcine trypsin (porcine) (UniProt P00761); experiment: apparent Ki; 10 nM trypsin, substrate S2251, 30 min preincubation, residual activity at 405 nm
Human plasmin [2] = target: T1, Human plasmin (Homo sapiens, UniProt P00747); experiment: apparent Ki; 4 nM plasmin, substrate S2251, 30 min preincubation, residual activity at 405 nm
[3] = target: glandular kallikrein (as used in Example 8) (Sus scrofa (Pig)) (UniProt P00752); experiment: apparent Ki; 1 U/ml glandular kallikrein, substrate S2266, 30 min preincubation, residual activity at 405 nm
plasma kallikrein [4] = target: T2, plasma kallikrein (Homo sapiens, UniProt P03952); experiment: apparent Ki; 3 nM plasma kallikrein, substrate S2302, 30 min preincubation, residual activity at 405 nm
[5] = target: bovine chymotrypsin (TLCK treated) (bovine) (UniProt P00766)
plasma kallikrein [6] = target: T2, plasma kallikrein
Human plasmin [7] = target: T1, Human plasmin
[8] = target: Porcine trypsin (porcine) (UniProt P00761)
[9] = target: glandular kallikrein (as used in Example 8) (Sus scrofa (Pig)) (UniProt P00752)
[10] = target: bovine chymotrypsin (TLCK treated) (bovine) (UniProt P00766); experiment: apparent Ki; 2.5 nM chymotrypsin, substrate S2586, 30 min preincubation, residual activity at 405 nm
plasma kallikrein [11] = target: T2, plasma kallikrein; experiment: Inhibition of serine proteinases: plasma kallikrein; type: biochemical; details: Example 8; enzyme 3 nM, substrate S2302 0.6 mM, 30 min incubation; read-out: Apparent Ki (nM), Pl. kallikrein
Procedure: (§1) KFN 1593 was purified from yeast culture medium as described in example 1. The concentration of KFN 1593 was determined using 1% E280 nm =8.3 and Mw =6500. Porcine trypsin was from Novo Nordisk (Bagsv.ae butted.rd, Denmark), bovine chymotrypsin (TLCK treated) and porcine pancreatic kallikrein was from Sigma Chemical Co (St. Louis, Mo., U.S.A.), human plasmin and human plasma kallikrein was from Kabi (Stockholm, Sweden).
(§2) Human neutrophil elastase and cathepsin G was purified from extracts of PMNs according to the method described by Baugh and Travis (Biochemistry 15 (1976) 836-843). Peptidyl nitroanilide substrates, S2251, S2586, S2266, S2302 were from Kabi (Stockholm, Sweden). M4765 and S7388 was from Sigma Chemical Co (St. Louis, Mo., U.S.A.) and FXa-1 was from NycoMed (Oslo, Norway).
(§3) Serine proteinases were incubated with various concentrations of KFN 1593 for 30 min. Substrate was then added and residual proteinase activity was measured at 405 nm.
(§4) The three TFPI (domain II) variants were purified from yeast culture medium. Their concentrations were determined from the absorbance at 214 nm using BPTI as a standard. The final concentration was determined by titration with trypsin. Porcine trypsin and human recombinant proteins, factor VIIa, activated protein C (ACP), and tPA were obtained from Novo Nordisk A/S (Bagsvaerd, Denmark), so was human thrombin. Bovine chymotrypsin and glandular kallikrein were obtained from Sigma Chemical Co. (St. Louis, Mo., U.S.A.). Truncated human recombinant tissue factor was obtained from Corvas (San Diego, Calif., U.S.A.). Human neutrophil cathepsin G was purified from extracts of PMNs according to the method described by Baugh and Travis (Biochemistry 15 (1976) 836-843). Human plasmin was from Kabi (Stockholm, Sweden), uPA was from Serono (Milan, Italy), human factor Xa was a gift from Dr. W. Kisiel (Albuquerque, N.M., U.S.A.), and human plasma kallikrein was a gift from Dr. I Schousboe (Copenhagen, Denmark).
(§5) Peptidyl nitroanilide substrates, S2251, S2302, S2266, S2586, S2288, S2444, S2366, and S2238 were from Kabi (Stockholm, Sweden). S7388 and M4765 were from Sigma Chemical Co. (St. Louis, Mo., U.S.A.) and FXa-1 was from Nycomed (Oslo, Norway).
(§6) Serine proteinases were incubated with various concentrations of Kunitz Domain variant for 30 min. Substrate (0.6 mM) was then added and residual proteinase activity was measured at 405 nm.
Target sequence in this assay (P03952 391-638 limits assumed): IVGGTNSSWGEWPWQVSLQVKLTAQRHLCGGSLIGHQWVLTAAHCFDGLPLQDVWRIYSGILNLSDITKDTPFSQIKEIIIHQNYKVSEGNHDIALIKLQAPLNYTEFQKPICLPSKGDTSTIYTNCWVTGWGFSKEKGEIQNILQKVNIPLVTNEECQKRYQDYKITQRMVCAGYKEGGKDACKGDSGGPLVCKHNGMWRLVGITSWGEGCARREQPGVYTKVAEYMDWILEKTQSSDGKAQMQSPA
Target sequence in this assay (P03952 20-390 limits assumed): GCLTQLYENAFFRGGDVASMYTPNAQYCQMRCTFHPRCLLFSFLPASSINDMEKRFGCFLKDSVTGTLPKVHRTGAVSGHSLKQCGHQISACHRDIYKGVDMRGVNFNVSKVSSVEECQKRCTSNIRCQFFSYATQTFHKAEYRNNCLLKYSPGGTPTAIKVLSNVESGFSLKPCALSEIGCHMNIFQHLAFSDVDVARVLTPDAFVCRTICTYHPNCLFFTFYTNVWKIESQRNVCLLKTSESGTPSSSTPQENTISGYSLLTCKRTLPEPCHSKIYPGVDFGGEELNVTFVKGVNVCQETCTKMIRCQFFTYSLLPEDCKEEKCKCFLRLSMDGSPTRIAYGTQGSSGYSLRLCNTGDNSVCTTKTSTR

Human plasmin [12] = target: T1, Human plasmin; experiment: Inhibition of serine proteinases: plasmin; type: biochemical; set-up: human plasmin and human plasma kallikrein was from Kabi (Stockholm, Sweden); purchased Kabi (Stockholm, Sweden); details: enzyme 4 nM, 30 min incubation, read-out: Apparent Ki (nM), Plasmin
Procedure: as §1, §2, §3, §4, §5, §6
(§7) The four variants were purified from yeast culture medium. Their concentrations were determined from the absorbance at 214 nm using BTPI as a standard. Porcine trypsin was obtained from Novo Nordisk A/S (Bagsvaerd, Denmark, bovine chymotrypsin (TLCK treated) was obtained from Sigma Chemical Co. (St. Louis, Mo., U.S.A.). Truncated human recombinant tissue factor was obtained from Corvas (San Diego, Calif., U.S.A.). Human plasmin was from Kabi (Stockholm, Sweden). Human neutrophil cathepsin G and elastase were purified from extracts of PMNs according to the method described by Baugh and Travis (Biochemistry 15 (1976) 836-843).
(§8) Peptidyl nitroanilide substrates, S2251, S2586 were from Kabi (Stockholm, Sweden). S7388 and M4765 were from Sigma Chemical Co. (St. Louis, Mo., U.S.A.).
(§9) Serine proteinases were incubated with various concentrations of the variants for 30 min. Substrate ([…]) was then added and residual proteinase activity was measured at 405 nm.
Target sequence in this assay (P00747 581-810 limits assumed): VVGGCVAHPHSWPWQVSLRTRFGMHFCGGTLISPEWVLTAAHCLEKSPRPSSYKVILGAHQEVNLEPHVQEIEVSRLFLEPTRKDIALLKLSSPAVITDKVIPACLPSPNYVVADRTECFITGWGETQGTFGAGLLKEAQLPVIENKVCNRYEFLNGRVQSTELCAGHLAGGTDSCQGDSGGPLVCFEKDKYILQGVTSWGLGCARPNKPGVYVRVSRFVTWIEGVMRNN
Target sequence in this assay (P00747 97-580 limits assumed): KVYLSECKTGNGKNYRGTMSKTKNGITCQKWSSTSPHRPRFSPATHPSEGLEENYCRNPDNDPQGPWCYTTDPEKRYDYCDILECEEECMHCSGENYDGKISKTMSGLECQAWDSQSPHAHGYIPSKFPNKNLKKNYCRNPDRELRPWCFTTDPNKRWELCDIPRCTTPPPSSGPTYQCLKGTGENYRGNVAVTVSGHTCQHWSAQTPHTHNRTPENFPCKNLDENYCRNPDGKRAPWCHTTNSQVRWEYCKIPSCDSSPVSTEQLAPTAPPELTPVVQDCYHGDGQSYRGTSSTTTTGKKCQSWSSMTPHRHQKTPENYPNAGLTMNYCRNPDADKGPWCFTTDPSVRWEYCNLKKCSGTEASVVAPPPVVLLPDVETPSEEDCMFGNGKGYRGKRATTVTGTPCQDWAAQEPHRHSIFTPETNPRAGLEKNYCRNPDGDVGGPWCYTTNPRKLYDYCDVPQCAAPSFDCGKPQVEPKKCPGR

Porcine trypsin = target: T3, Porcine trypsin (Sus scrofa, UniProt P00761); experiment: Inhibition of serine proteinases: trypsin, peptidyl nitroanilide substrate, residual activity at 405 nm; type: biochemical; details: enzyme 10 nM, read-out: Apparent Ki (nM), Trypsin
T3 construct: purchased Novo Nordisk (Bagsvaerd, Denmark; the applicant itself)
T3 sequence (P00761 9-231): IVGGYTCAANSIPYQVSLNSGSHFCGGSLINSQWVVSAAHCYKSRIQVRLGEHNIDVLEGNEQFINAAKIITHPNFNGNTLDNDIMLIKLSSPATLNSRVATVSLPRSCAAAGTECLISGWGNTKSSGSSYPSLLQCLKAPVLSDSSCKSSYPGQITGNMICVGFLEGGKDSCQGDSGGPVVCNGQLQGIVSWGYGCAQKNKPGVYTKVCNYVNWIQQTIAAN
Procedure: as §1, §2, §3, §4, §5, §6, §7, §8, §9

[13] = target: T4, glandular kallikrein (porcine pancreatic kallikrein) (Sus scrofa, UniProt P00752); experiment: Inhibition of serine proteinases: glandular kallikrein; type: biochemical; details: Example 8; enzyme 1 U/ml, substrate S2266 0.6 mM, 30 min incubation; read-out: Apparent Ki (nM), Gl. kallikrein
T4 construct: purchased Sigma Chemical Co (St. Louis, Mo., U.S.A.)
T4 sequence (P00752 8-246): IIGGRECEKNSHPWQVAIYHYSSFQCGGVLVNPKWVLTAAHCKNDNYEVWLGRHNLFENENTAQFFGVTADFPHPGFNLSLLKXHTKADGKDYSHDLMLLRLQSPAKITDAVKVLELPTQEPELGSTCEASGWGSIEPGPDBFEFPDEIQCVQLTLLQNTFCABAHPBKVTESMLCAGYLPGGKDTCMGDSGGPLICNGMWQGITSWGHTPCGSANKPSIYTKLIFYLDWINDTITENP
Procedure: as §1, §2, §3, §4, §5, §6

Bovine chymotrypsin = target: T5, Bovine chymotrypsin (Bos taurus, UniProt P00766); experiment: Inhibition of serine proteinases: chymotrypsin; type: biochemical; details: enzyme 2.5 nM, substrate S2586 0.6 mM, 30 min incubation
T5 construct: purchased Sigma Chemical Co. (St. Louis, Mo., U.S.A.)
Procedure: as §4, §5, §6, §7, §8, §9

granulocyte elastase = target: T6, granulocyte elastase (Homo sapiens, UniProt P08246); details: Wenzel and Tschesche 1981; cited from earlier work
T6 sequence (P08246 30-267): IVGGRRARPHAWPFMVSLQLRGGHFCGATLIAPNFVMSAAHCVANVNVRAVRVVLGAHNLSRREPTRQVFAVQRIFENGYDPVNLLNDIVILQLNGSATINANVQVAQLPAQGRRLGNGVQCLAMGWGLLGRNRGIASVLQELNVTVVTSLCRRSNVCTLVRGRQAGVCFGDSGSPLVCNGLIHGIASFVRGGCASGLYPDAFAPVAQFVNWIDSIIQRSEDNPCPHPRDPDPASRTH

[14] = target: T7, Human neutrophil elastase (Homo sapiens, UniProt P08246); experiment: Inhibition of serine proteinases: neutrophil elastase; type: biochemical; details: Example 9; for Ki: enzyme 4 nM, substrate M4765, 30 min incubation, read-out: Apparent Ki (nM), N. elastase
T7 construct: Human neutrophil elastase and cathepsin G was purified from extracts of PMNs; from tissue; host or cells: extracts of human polymorphonuclear leukocytes (PMNs), method of Baugh and Travis
T7 sequence (P08246 30-267): T6 sequence (P08246 30-267)
Procedure: as §1, §2
Serine proteinases were incubated with various concentrations of KFN 1593 for 30 min. Substrate was then added and residual proteinase activity was measured at 405 nm. […]
as §7, §8, §9

[15] = target: T8, Human neutrophil cathepsin G (Homo sapiens, UniProt P08311); experiment: Inhibition of serine proteinases: neutrophil cathepsin G; type: biochemical; details: Example 9; enzyme 50 nM, substrate S7388, 30 min incubation; read-out: Apparent Ki (nM), N. cathepsin G
T8 construct: Human neutrophil cathepsin G was purified from extracts of PMNs; from tissue; host or cells: extracts of human polymorphonuclear leukocytes (PMNs), method of Baugh and Travis
T8 sequence (P08311 21-255): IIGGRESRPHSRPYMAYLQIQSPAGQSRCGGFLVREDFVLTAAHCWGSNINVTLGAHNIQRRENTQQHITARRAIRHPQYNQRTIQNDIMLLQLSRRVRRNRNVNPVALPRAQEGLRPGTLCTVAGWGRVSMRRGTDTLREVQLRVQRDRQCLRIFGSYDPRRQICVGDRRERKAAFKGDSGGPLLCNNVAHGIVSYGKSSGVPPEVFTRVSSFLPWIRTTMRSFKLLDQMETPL
Procedure: as §1, §2, §3, §4, §5, §6, §7, §8, §9

[16] = target: Human neutrophil elastase (human) (UniProt P08246)
[17] = target: bovine chymotrypsin (TLCK treated) (bovine) (UniProt P00766); remark: listed apart in the source
[18] = target: Human neutrophil elastase (human) (UniProt P08246); experiment: apparent Ki; 4 nM neutrophil elastase, substrate M4765, 30 min preincubation, residual activity at 405 nm
[19] = Example 9, substrate S2251, 30 min incubation
[20] = Example 9, read-out: Apparent Ki (nM), Chymotrypsin

[R15K, G16A, Y17R, T19I]-TFPI-2 from yeast strain KFN-1811 (from UniProt P10646)
Ki [1]: < 1 nM
Ki (Human plasmin [2]): 3 nM
Ki [3]: > 100 nM
Ki (plasma kallikrein [4]): > 100 nM
apparent Ki [5]: 10 nM
apparent Ki (plasma kallikrein [6]): > 100 nM
apparent Ki (Human plasmin [7]): 3 nM
apparent Ki [8]: < 1 nM
apparent Ki [9]: > 100 nM
Ki [10]: 10 nM

[R15K, G16A, Y17R, T19I, L39R]-TFPI-2 [KFN 1867]
Ki (plasma kallikrein [11]): > 100 nM
Ki (Human plasmin [12]; Example 8, substrate S2251 0.6 mM): 3 nM
Ki (Porcine trypsin; Example 8, substrate S2251 0.6 mM, 30 min incubation): < 1 nM
Ki [13]: > 100 nM
Ki (Bovine chymotrypsin; Example 8, read-out: Apparent Ki (nM), chymotrypsin): 20 nM

aprotinin (1-58, Ala15)
effect on granulocyte elastase (in words) (granulocyte elastase): weak effect

[R15K, G16A, Y17R, T19I, L39R]-TFPI-2 from yeast strain KFN-1867 (from UniProt P10646)
Ki [1]: < 1 nM
Ki (Human plasmin [2]): 3 nM
Ki [3]: > 100 nM
Ki (plasma kallikrein [4]): > 100 nM
apparent Ki [5]: 20 nM
apparent Ki (plasma kallikrein [6]): > 100 nM
apparent Ki (Human plasmin [7]): 3 nM
apparent Ki [8]: < 1 nM
apparent Ki [9]: > 100 nM
Ki [10]: 20 nM

[R15V]-TFPI-2 [KFN 1898]
Ki (Human plasmin [12]; Example 9): > 1000 nM
Ki (Porcine trypsin; [19]): > 1000 nM
neutrophil elastase inhibition (in words) [14]: strong inhibitors
Ki [14]: 0.35 nM
Ki [15]: > 1000 nM
Ki (Bovine chymotrypsin; [20]): > 100 nM

[R15L, G16A]-TFPI-2 [KFN 1893]
Ki (Human plasmin [12]; Example 9): > 1000 nM
Ki (Porcine trypsin; [19]): > 1000 nM
neutrophil elastase inhibition (in words) [14]: strong inhibitors
Ki [14]: 0.23 nM
Ki [15]: > 1000 nM
Ki (Bovine chymotrypsin; [20]): < 5 nM

[R15L]-TFPI-2 from yeast strain KFN-1928 (from UniProt P10646)
residual proteinase activity at 405 nm (apparent Ki) [16]: 2.2 nM
apparent Ki [17]: < 5 nM
Ki [18]: 2.2 nM
Ki [10]: < 5 nM

[R15V, G16A]-TFPI-2 from yeast strain KFN-1897 (from UniProt P10646)
apparent Ki [16]: 0.46 nM
Ki [18]: 0.46 nM
